T1: Kif7-DM-GFP (1-543aa) (human, UniProt Q2M1P5 1-543)
T1 sequence: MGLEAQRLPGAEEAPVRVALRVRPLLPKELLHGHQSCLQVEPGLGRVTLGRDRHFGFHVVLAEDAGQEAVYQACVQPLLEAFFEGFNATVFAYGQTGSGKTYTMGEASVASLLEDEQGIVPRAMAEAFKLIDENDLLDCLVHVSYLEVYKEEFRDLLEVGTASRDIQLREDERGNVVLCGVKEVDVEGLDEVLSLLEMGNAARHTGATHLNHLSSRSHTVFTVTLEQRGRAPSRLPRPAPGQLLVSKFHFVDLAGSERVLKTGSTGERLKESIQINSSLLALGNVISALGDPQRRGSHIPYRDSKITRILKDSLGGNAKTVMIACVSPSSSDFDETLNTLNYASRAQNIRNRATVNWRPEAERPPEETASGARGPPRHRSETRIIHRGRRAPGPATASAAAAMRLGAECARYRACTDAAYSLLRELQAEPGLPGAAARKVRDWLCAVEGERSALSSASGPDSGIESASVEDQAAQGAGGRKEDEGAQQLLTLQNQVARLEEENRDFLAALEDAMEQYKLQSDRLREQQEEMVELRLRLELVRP

T2: Kif7M-Kif27CC chimera (human, UniProt Q86VH2 475-570)
T2 construct: range 475-570; not shown: HIS tag (used for BLI); GFP tag
T2 sequence: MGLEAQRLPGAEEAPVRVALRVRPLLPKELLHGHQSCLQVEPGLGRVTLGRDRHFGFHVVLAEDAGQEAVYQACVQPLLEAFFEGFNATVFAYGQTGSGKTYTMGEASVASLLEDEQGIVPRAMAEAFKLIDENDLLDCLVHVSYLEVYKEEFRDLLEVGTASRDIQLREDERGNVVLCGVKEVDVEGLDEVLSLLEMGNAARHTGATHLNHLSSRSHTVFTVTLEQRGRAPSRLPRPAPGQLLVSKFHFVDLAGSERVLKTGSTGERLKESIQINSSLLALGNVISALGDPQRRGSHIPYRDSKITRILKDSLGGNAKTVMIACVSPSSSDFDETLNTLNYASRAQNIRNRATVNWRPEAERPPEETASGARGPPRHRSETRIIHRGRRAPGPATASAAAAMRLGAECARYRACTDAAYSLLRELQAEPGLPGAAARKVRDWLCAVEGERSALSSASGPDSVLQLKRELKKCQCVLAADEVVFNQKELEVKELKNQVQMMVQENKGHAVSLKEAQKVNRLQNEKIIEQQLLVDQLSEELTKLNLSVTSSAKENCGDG

T3: Kif27M-Kif7CC chimera (human, UniProt Q86VH2 1-475)
T3 construct: range 1-475; not shown: HIS tag (used for BLI); GFP tag
T3 sequence: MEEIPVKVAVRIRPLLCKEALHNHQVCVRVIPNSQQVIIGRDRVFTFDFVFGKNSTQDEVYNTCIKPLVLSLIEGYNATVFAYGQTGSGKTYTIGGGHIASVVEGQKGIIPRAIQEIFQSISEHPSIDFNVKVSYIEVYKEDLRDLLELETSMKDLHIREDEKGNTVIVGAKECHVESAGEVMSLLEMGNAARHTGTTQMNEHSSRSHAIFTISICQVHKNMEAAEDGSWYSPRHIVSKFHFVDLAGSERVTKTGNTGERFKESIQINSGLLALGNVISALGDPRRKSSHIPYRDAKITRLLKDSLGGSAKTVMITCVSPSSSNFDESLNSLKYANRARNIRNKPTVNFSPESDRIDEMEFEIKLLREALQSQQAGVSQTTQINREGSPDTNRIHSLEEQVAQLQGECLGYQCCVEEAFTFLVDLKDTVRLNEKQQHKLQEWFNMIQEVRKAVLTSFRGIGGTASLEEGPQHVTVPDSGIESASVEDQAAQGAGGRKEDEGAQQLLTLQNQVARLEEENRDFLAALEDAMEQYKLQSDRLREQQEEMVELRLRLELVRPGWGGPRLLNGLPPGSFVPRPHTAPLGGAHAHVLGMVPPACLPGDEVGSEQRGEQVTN

T4: Gli2-ZF-GFP (human, UniProt P10070 418-604)
T4 construct: HRV-cleavable N-terminal 6xHis tag in the vector; not shown: C-terminal GFP tag
T4 sequence (looked up): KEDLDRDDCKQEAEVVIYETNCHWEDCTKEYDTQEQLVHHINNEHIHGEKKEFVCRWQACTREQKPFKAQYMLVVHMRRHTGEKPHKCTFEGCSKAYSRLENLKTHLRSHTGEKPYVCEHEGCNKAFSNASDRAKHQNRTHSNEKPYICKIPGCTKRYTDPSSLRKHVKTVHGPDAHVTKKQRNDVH

B1: Gli2 ZF1-3 (other, human, UniProt P10070 418-530, looked up)
chain: KEDLDRDDCKQEAEVVIYETNCHWEDCTKEYDTQEQLVHHINNEHIHGEKKEFVCRWQACTREQKPFKAQYMLVVHMRRHTGEKPHKCTFEGCSKAYSRLENLKTHLRSHTGE
notes: domain: zinc-fingers 1-3
B2: Gli2-ZF (418-604aa; zinc finger domain of Gli2) (other, human, UniProt P10070 418-604, looked up)
chain: T4 sequence (looked up)
notes: Expressed with an HRV-cleavable N-terminal 6xHis tag, cleaved 'if needed'; also called Gli-ZF
B3: GST-Kif7-CC (460-600aa) (other)
chain: PDSGIESASVEDQAAQGAGGRKEDEGAQQLLTLQNQVARLEEENRDFLAALEDAMEQYKLQSDRLREQQEEMVELRLRLELVRPGWGGPRLLNGLPPGSFVPRPHTAPLGGAHAHVLGMVPPACLPGDEVGSEQRGEQVTN
notes: held on the BLI sensor through the GST tag; also called Kif7 coiled-coil domain; coiled-coil dimerization domain fragment of Kif7; not shown: N-terminal GST tag (HRV protease cleavable, modified pGEX vector)
B4: GST-Kif7-CC-GFP (other)
chain: B3 chain
notes: also called GST-tagged Kif7-CC-GFP; not shown: N-terminal GST tag; GFP tag, C-terminal by the name

For test [1], the target named is B3. As to the kind of experiment: BLI with Gli2-ZF truncation, Hill fit. The text has this:
(§1) Data represent mean and standard deviation from three independent repeats. The plots of binding response versus Gli2-ZF concentration were fit to a Hill equation to determine equilibrium dissociation constants (Kd).
(§2) Third, we performed a series of site-directed mutagenesis experiments to further confirm the structural model and map the residues of Gli2-ZF and Kif7-CC required for complex formation. We created five Gli2-ZF truncations containing different groups of zinc-fingers (FIG. 3C; FIGS. 10A & 10B). […] This is similar to the Gli-DNA interaction where ZF2 and ZF3 are critical for making contacts with the phosphate backbone of DNA (Pavletich and Pabo, Science, 261, 1701-1707, 1993).
(§3) BLI experiments were performed in an Octet Red 96 instrument (ForteBio). To quantify Kif7-Gli2 binding, Experiments were performed in an assay buffer containing 40 mM TRIS pH7.3, 40 mM KCl, 40 μM ATP 1 mM MgCl₂, 0.12% tween and 0.5 mM TCEP. In the simplest assay, dimeric GST-Kif7-CC at a concentration of 120 nM is immobilized on an anti-GST biosensor chip. Unbound Kif7 is washed away with buffer, and the chips are then dipped into buffer with a range of Gli2-ZF concentrations from 0-1 μM to allow for association of the two proteins. After 300 seconds, they are then moved back into a well with just buffer to allow dissociation for 400 seconds. […]

Test [2] deals with T1, Kif7-DM-GFP (1-543aa). As to the kind of experiment: cell-based or functional assay.
The target in test [3] is T1, Kif7-DM-GFP (1-543aa). Briefly: BLI; HIS-tagged, GFP-tagged kinesin on anti-penta-HIS sensor, Gli2-ZF as analyte, Hill fit. The procedure: as §1
(§4) BLI experiments were performed in an Octet Red 96 instrument (ForteBio). To quantify Kif7-Gli2 binding, Experiments were performed in an assay buffer containing 40 mM TRIS pH7.3, 40 mM KCl, 40 μM ATP 1 mM MgCl₂, 0.12% tween and 0.5 mM TCEP. In the simplest assay, dimeric GST-Kif7-CC at a concentration of 120 nM is immobilized on an anti-GST biosensor chip. Unbound Kif7 is washed away with buffer, and the chips are then dipped into buffer with a range of Gli2-ZF concentrations from 0-1 μM to allow for association of the two proteins. After 300 seconds, they are then moved back into a well with just buffer to allow dissociation for 400 seconds. The equilibrium response of each sensor from three independent repeats at each Gli2 concentration were normalized and plotted against Gli2 concentration and fitted with a Hill function to obtain a Kₜ. […] The assays were also performed with HIS-tagged Kif7-DM and the Kif7-Kif27 chimeric proteins, requiring the use of an anti-penta-HIS biosensor chip, and referencing sensors to account for non-specific binding of Gli2 to the HIS sensor. A flipped assay, using HIS-tagged Gli2 on the sensor and a range of Kif7 concentrations in buffer, was also conducted.

A further test deals with T2, Kif7M-Kif27CC chimera. Described as above. The procedure: as §1, §4
In a further test the target is T3, Kif27M-Kif7CC chimera. The description is as above. The protocol:
as §1, §4

Test [4] concerns the target B3. Briefly: BLI, GST-Kif7-CC on the sensor, Gli2-ZF titrated in the presence of 125 nM Gli2 target dsDNA (competitor); not an affinity of the free pair [panel A]. The procedure: as §4
Background: Biolayer interferometry detects binding as a change in optical thickness at a sensor tip.

Test [5] has as its target T5, Gli2-ZF-1-4 (human, UniProt P10070 418-562, limits assumed).
T5 construct: domain: zinc-fingers 1-4
As to the kind of experiment: BLI with Gli2-ZF truncation, Hill fit.
From the text: as §1, §2, §3

Test [6] has as its target B2. As to the kind of experiment: BLI; GST-Kif7-CC on anti-GST sensor, Gli2-ZF as analyte, Hill fit of equilibrium response. The source says:
Data represent mean and standard deviation from three independent repeats. The plots of binding response versus Gli2-ZF concentration were fit to a Hill equation to determine equilibrium dissociation constants (Kd). […] See also FIGS. 8A & 8B.
Single molecule fluorescence intensity and photobleaching analysis of the GFP-tagged proteins indicate that the GST-Kif7-CC is an obligate dimer and Gli2-ZF is a monomer (FIGS. 8C & 8D). […] We also verified that Kif7-CC-GFP and Gli2-ZF-GFP bind with similar affinity as the untagged proteins (FIG. 8E). Due to higher stability and yield of the Kif7-CC compared to the Kif7-SCC protein, we used the Kif7-CC for further biochemical analysis.
BLI experiments were performed in an Octet Red 96 instrument (ForteBio). To quantify Kif7-Gli2 binding, Experiments were performed in an assay buffer containing 40 mM TRIS pH7.3, 40 mM KCl, 40 μM ATP 1 mM MgCl₂, 0.12% tween and 0.5 mM TCEP. In the simplest assay, dimeric GST-Kif7-CC at a concentration of 120 nM is immobilized on an anti-GST biosensor chip. Unbound Kif7 is washed away with buffer, and the chips are then dipped into buffer with a range of Gli2-ZF concentrations from 0-1 μM to allow for association of the two proteins. After 300 seconds, they are then moved back into a well with just buffer to allow dissociation for 400 seconds.

Test [7] addresses T5, Gli2-ZF-1-4. Briefly: BLI with Gli2-ZF truncation, Hill fit (legend of FIG. 10C); legend of FIG. 10C; Hill fit, three repeats. The protocol: as §1
as §4, with “A flipped assay, using HIS-tagged Gli2 on the sensor and a range of Kif7 concentrations in buffer, was also conducted.” left out

Test [8] deals with B2. Briefly: BLI, Hill fit. The procedure:
(§5) Data represent mean and standard deviation from three independent repeats. The plots of binding response versus Gli2-ZF concentration were fit to a Hill equation to determine equilibrium dissociation constants (Kd). […] GFP-tagged versions of proteins show a consistent increase in Kd that is within error range.
as §4, with “A flipped assay, using HIS-tagged Gli2 on the sensor and a range of Kif7 concentrations in buffer, was also conducted.” left out

For a further test, the target named is T4, Gli2-ZF-GFP. Briefly: BLI, Hill fit. The protocol:
as §5
as §4, with “A flipped assay, using HIS-tagged Gli2 on the sensor and a range of Kif7 concentrations in buffer, was also conducted.” left out

As a reminder, the Kd is a measure of binding affinity in units of concentration. Read a low Kd as higher affinity. In the case of B1, the Kd with GST-Kif7-CC (460-600aa) [1] turned out to be 160 nM.
In general, EC50 (read off the curve) refers to the concentration at which the effect is half-maximal. B2: in the test with Kif7-DM-GFP (1-543aa) [2], the “Kif7 fluorescence intensity on microtubules (TIRF)” value was over 5 fold. Moreover, the Kd in the test with Kif7-DM-GFP (1-543aa) [3] came to 217 nM; in the test with Kif7M-Kif27CC chimera, 397 nM; with Kif27M-Kif7CC chimera, 213 nM. In addition, in the test with GST-Kif7-CC (460-600aa) [4], the “EC50 (read off the curve)” value is about 200 nM.
Turning to B3, the Kd with Gli2-ZF-1-4 [5] came out at 101 nM; in [6] it was 48 nM; in the test with Gli2-ZF-1-4 [7], 103 nM.
With B4, the Kd in [8] was determined as 65 nM; in the test with Gli2-ZF-GFP it was 57 nM.

The record behind these values is patent US20230374088A1 (GENERAL HOSPITAL, published 2023).
